The text below walks through data of PMC8093215 (2021).

One assay addresses hDNMT1 BAH1 domain Y775A (human, UniProt P26358 728-900, Y775A). Description: ITC.
The target of a further assay is hDNMT1 BAH1 domain D768A (human, UniProt P26358 728-900, D768A). Briefly: ITC.
Sequence of hDNMT1 BAH1 domain D768A (P26358 728-900 D768A): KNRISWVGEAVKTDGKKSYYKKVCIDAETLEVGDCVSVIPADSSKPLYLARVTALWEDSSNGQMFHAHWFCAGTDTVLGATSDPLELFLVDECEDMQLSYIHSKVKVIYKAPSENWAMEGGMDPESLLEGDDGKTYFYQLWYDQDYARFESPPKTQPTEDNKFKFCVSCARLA

Sequence of hDNMT1 BAH1 domain Y775A (P26358 728-900 Y775A): as the sequence (P26358 728-900 D768A) above, with A41D, Y48A counted along it

Take GAKRHRKVLRDNY (trimethyl-lysine at K20) [H4(14–25)K20me3 peptide]: the Kd with hDNMT1 BAH1 domain Y775A came out at 361 µM; in the assay with hDNMT1 BAH1 domain D768A it was 10 µM.
